Numbering of substitutions follows the chain as printed.
B1: anti-TIM-3 monoclonal antibody 5-K4-A (antibody, V domains shown)
VH: EVQLQQSGPELVKTGASVKISCKASGYSFTAYYIHWVKQSHGKSLEWIGHISCFNGATSYNQKFKGKATFTVDTSSSTAYMQFNSLTSEDSAVYYCARRGDFDRPEFAYWGQGTLVTVSA
VL: DIVLTQSPASLAVSLGQRATISCRASESVEYYGTSLMQWYQQKPGQPPKLLIYAASNVESGVPARFSGSGSGTDFSLNIHPVEEDDIAMYFCQQSRKVPWTFGGGTKLEIK
B2: anti-TIM-3 monoclonal antibody 16-K5-A (antibody, V domains shown)
VH: QVQLQQSGAELVKPGASVKLSCKASGYTFTSSDINWVRQRPEQGLEWIGWIFPGDGSTKYNEKFKGKATLTTDKSSSTAYMQLSRLTSEDSAVYFCARGLDYWGQGTTLTVSS
VL: DIKMTQSPSSMYASLGERVTITCKASQDINSYLGWFQQKPGKSPKTLIYRADRLVDGVPSRFSGSGSGQDYSLTISSLEYEDMGIYYCLQYDEFPLTFGAGTKLELK
B3: anti-TIM-3 monoclonal antibody 10-M21-A (antibody, V domains shown)
VH: DVQLQESGPTLVKPSQTLSLTCSVTGDSITSGYWNWIRKFPGNKLEYMGYISYSGSTYYNPSLKSRISIIRDTSKNQYYLQLNSVTTEDTATYYCVSGNHFDYWGQGTTLTVSS
VL: DIQMTQSPSSLSASLGGKVTITCKASQDINRYIAWYQHKPGKGPRLLIHYTSTLQPGIPSRFSGSGSGRDYSFSISNLEPEDIATYYCLQYDNLLFTFGSGTKLEIK
B4: anti-TIM-3 monoclonal antibody 16-L3-A (antibody, V domains shown)
VH: QVQLQQSGPELVKPGASVKMSCKASGYTFTSYYIHWVKQRPGQGLEWIGWIYPGDGSTKYNEKFKGKTTLTADKSSSTAYMLLSSLTSEDSAIYFCATDRYDVAYWGQGTLVTVSA
VL: EIVLTQSPALMAASPGEKVTITCSVSSSISSSNLHWYQQKSETSPKPWIYGTSNLASGVPVRFSGSGSGTSYSLTISSMEAEDAATYYCQQWSSYPLTFGAGTKLELK
B5: anti-TIM-3 monoclonal antibody 18-N1-A (antibody, V domains shown)
VH: QVQLQQPGAELVRPGVSVKLSCKASGYTFTSYWMHWIKQRPEQGLERIGEINPSNGGTNYNEKFKNKATLTVDKSSSTAYMQLSSLTSEDSAVYYCARSYYTYDAIDYWGQGTSVTVSS
VL: DIVMSQSPSSLAVSAGEKVTMSCKSSQSLLNSRTRKNYLAWYQQKPGQSPKLLIYWASTRESGVPDRFTGSGSGTDFTLTISSVQAEDLAVYYCKQSYNLYTFGGGTKLEIK
B6: anti-TIM-3 monoclonal antibody 6-I13-A (antibody, V domains shown)
VH: EVQLQQSGPELEKPGASVKISCKASGYSFTGYNMNWVKQSNGKSLEWIGNIDPYYGVTSYNQKFKGKATLTVDKSSSTAYMQLKSLTSEDSAVYYCASYSLTYDGYYPFAYWGQGTLVTVSA
VL: DIVLTQSPASLAVSLGQRATISCRASKSVSTSGYSYMHWYQQKPGQPPKLLIYLASNLESGVPARFSGSGSGTDFTLNIHPVEEEDAATYYCQHSRELPYTFGGGTKLEIK
B7: anti-TIM-3 monoclonal antibody 10-O15-A (antibody, V domains shown)
VH: QVQLQQSGADLVRPGASVKLSCKALGYTFTDYEMHWVKQTPVHGLEWIGAIHPGSGGTAYNQKFKGKATLTADKSSSTAYMELSSLTSEDSAVYFCSRSYYRYTGYFDVWGAGTTVTVSS
VL: B6 VL with T31A, I79V, Y100F, G104S

Molecular target: cynomolgus TIM-3 (cynomolgus)
Assay: BLI (OCTET Red96), mAb on anti-mouse Fc biosensor, antigen in solution, 1:1 model

Kd | Binder
6.7 nM | B1
6.4 nM | B2
7.5 nM | B3
6.5 nM | B4
14 nM | B5
5.2 nM | B6
2.9 nM | B7
